# According to patent publication US20260216328A1, “DISRUPTABLE LINKER COMPOSITIONS, SWITCHABLE BISPECIFIC T CELL NANOENGAGER (SWITCH-BITE) COMPOSITIONS COMPRISING THE SAME, AND METHODS OF USE THEREOF” (The Trustees of the University of Pennsylvania, priority 2023, published 2026):
# Key:
# [1] = test system: Raji-Luc-GFP tumour cells; experiment: Cytokine release syndrome in humanized NSG-SGM3 mice with Raji-Luc-GFP tumour; assay type: in vivo, mouse
# Description: An in vivo imaging system (IVIS) was used to monitor tumour burden in vivo. […] FIGS. 41C-41E: Mouse body weight, temperature and survival curves, respectively. n=10 mice. […] The data in FIGS. 41C-41D and FIGS. 41F-41J were plotted as mean±s.d. (n=10) from three independent experiments. […] P value in FIG. 41E was determined using Log-rank (Mantel-Cox) test.
# SiTE and Blinatumomab were also compared with regard to treating symptoms of CRS and neurotoxicity. The humanized mouse model was constructed as before, but this time the piggybac transposon system was not used to express CD19 in the mouse livers. This allowed better analysis of the effects of the SiTE on CRS and neurotoxicity (FIG. 41A). Raji-Luc-GFP cells were i.v. injected at day −14. Blinatumomab, SiTE or PBS were i.v. injected to the mice at day one. Mouse tumour burden, body weight, temperature, and plasma cytokine levels were monitored (FIGS. 41B-41J).
# [2] = Half-life and biodistribution of Blinatumomab and CD3/CD19 SiTE; assay type: in vivo, mouse
# Description: FIGS. 17A-17F: half-life and in vivo biodistribution of Blinatumomab. FIGS. 17A-17B: Blinatumomab was labeled with Cy7 and was i.v. injected to healthy untreated mice. 10 μL of blood at 0, 1, 2, 4, 6, 12, 24, 36 and 48 h was collected and imaged using IVIS. The fluorescence signal at different time points were quantified (FIG. 17B). FIG. 17C: the biodistribution of Blinatumomab in healthy mice was also investigated 24 h after Blinatumomab-Cy7 injection. FIG. 17D: In order to mimic a clinical patient treatment, a mouse model was constructed with CD19 expression in the liver and a subcutaneous B-cell lymphoma model. Blinatumomab-Cy7 was i.v. injected at 0 h. The mice were euthanized at 24 h and the distribution of Blinatumomab-Cy7 in major organs and tumour was evaluated. The Blinatumomab-Cy7 mainly accumulates in the liver, spleen and tumour. The distribution of SiTE that targets human CD3 and human CD19 antigen was evaluated in both healthy untreated mice (FIG. 17E) and in a mouse model with CD19 expression in the liver and has a subcutaneous B-cell lymphoma tumour (FIG. 17F), similar results were obtained.
# Encouraged by the results from the in vitro experiments, the controllable activity of SiTE was evaluated in vivo. […] It was also analyzed if the biodistribution of SiTE both in healthy NSG mice and in Raji tumour-bearing humanized NSG mice that express CD19 antigen in the liver. […]
# [3] = test system: Raji-Luc-GFP tumour cells; experiment: Humanized immune system mice with liver CD19 and Raji-Luc-GFP tumour; conditions: SiTE targets human CD3/CD19
# [4] = test system: Raji-Luc-GFP cells; experiment: Antitumour efficacy in normal NSG mice with Raji-Luc-GFP tumour; assay type: in vivo, mouse; conditions: days 1, 3, 5
# Text: FIGS. 43A-43C: comparison of the antitumour efficacy of SITE and Blinatumomab. In order to solely compare the antitumour capacity of Blinatumomab and the SiTE, CD19 antigen was not expressed in mouse liver so BiTNE or SiTE treatment will not induce on-target, off-tumour toxicity. Additionally, normal NSG mice (without humanization) were used to construct the tumour model so the mice will not develop CRS. FIG. 43A: Raji-Luc-GFP cells were i.v. injected to mice at day −14. Tumour bearing mice were treated with Blinatumomab or SiTE at days 1, 3, or 5. FIG. 43B: mice were imaged using IVIS at days 0, 5, 9, and 13 to monitor the tumour burden level. c, Quantification of the luminescence levels in FIG. 43B. The data in FIG. 43C were plotted as mean s.d. (n=5) f. P value in FIG. 43C was determined using one-way ANOVA.
# In order to specifically assess the antitumour efficacy of Blinatumomab and the SiTE, expression of the CD19 antigen in the mouse liver was refrained from. By employing this approach, it was ensured that treatment with either Blinatumomab or SiTE would not elicit on-target, off-tumour toxicity. To further avoid the effect of CRS on the evaluation of the therapeutic outcome of Blinatumomab and SiTE, normal NSG mice were employed, devoid of humanization.
# [5] = test system: Raji-Luc-GFP tumour cells; experiment: Blinatumomab vaccine effect and CRS after discontinuation; assay type: in vivo, mouse
# Description: Raji tumour cells and human T cells were co-cultured in serum-free medium and were treated with Blinatumomab for 24 h. After that, the cell culture medium was collected and the proteins in the medium were analyzed using proteomics. FIG. 44A: Large amount of damage associated molecule patterns (DAMPs); and FIG. 44B: tumour associated antigens were detected in the cell culture medium. FIG. 44C: Raji tumour bearing humanized NSG mice were treated with three doses of Blinatumomab. […] Then, Raji-Luc-GFP cell viability was determined. […] The data in FIG. 44C are presented as mean±s.d. (n=5) f. P value in FIG. 44C was determined using one-way ANOVA.
# FIGS. 45A-45C: CRS symptoms cannot be stopped by simply stop the administration of Blinatumomab. FIG. 45A: humanized NSG mice were i.v. injected with Raji-Luc-GFP cells on day −14. Then Blinatumomab were administrated at days 1, 3, or 5. FIG. 45B: IL-6 level in mouse blood were monitored. FIG. 45C: survival curve.
# It was also investigated if Blinatumomab could also induce a vaccine effect. […] It was also questioned whether CRS could be halted by simply discontinuing the administration of Blinatumomab, owing to its inherent short half-life. […] The pronounced targeting of T cells and CD19-expressing cells, coupled with heightened activation of many immune cells, served to amplify the cytokine cascade, rendering it impervious to interruption by the mere discontinuation of Blinatumomab usage. These findings underscore the critical exigency for the development of an alternative to Blinatumomab, one that can be switched off as needed, in this rapidly evolving research field.
# [6] = mouse, in vivo; cited from earlier work
# [7] = test system: Raji-Luc-GFP tumour cells; conditions: around day 33, after SiTE
# Description: FIG. 42A: NSG-SGM3 mice were treated with Busulfan at day −50 to remove mouse bone marrow. At day −49, 10^5 human CD34^+ fetal liver cells were i.v. injected to let the mouse develop a human immune system. 10^6 Raji-Luc-GFP tumour cells were i.v. injected at day −14. At days 1, 3, and 5, PBS or SiTE was i.v. injected (in the PBS group, only PBS was injected to tumour-bearing mice). […] FIGS. 42B-42E: mouse body weight, temperature, IL-6 levels, and mouse survival curves, respectively. n=10 mice. The red stars in FIG. 42B indicate that mice were euthanized. FIG. 42F: measurements of IL-1 in mouse blood at different time points. n=10 mice. […] Brain H&E staining (FIG. 42I) and human CD68 immunohistochemistry (FIG. 42J) images of mice at day 35. The data in FIGS. 42B-42F were plotted as mean z s.d. (n=10) from three independent experiments.
# It was also evaluated if the SiTE can help control neurotoxicity. In the clinic, neurotoxicity is usually delayed and occurs several […] after CRS onset. Tumour-bearing mice were treated with SiTE at days 1, 3 and 5 (FIG. 42A). […] Rather than use a preventative strategy for treating CRS (FIGS. 40A-40M), here Tocilizumab was used to treat CRS when symptoms presented, so that it can be compared directly with the SiTE strategy. […] Studies have shown that IL-1 is the major cause of neurotoxicity.
substance,measurement,setting,value
Blinatumomab: first BiTE to receive FDA approval; links CD3-positive T cells to CD19-expressing B cell cancers,fever and body weight,"[1]; 5 mg/kg, days 1, 3, 5, SiTE targets human CD3/CD19",induced high fever and body weight loss
same,"plasma IL-6, IFN-γ, TNF-α, CXCL10 and CCL3 concentrations",[1]; after treatment,greatly increased
same,biodistribution,[2]; Raji tumour-bearing humanized mice expressing human CD19 in the liver,"high accumulation of Blinatumomab in the tumours, livers, and spleens"
same,biodistribution,"[2]; healthy mice with a humanized immune system, i.v.",accumulated greatly in the spleens
same,tumour cell killing (IVIS),"[3]; 5 mg/kg i.v. x3, Tocilizumab pre-treatment",induced effective tumour cell killing
same,"on-target, off-tumour toxicity and CRS",[3]; 5 mg/kg i.v. x3,"not only induced on-target, off-tumour toxicity in the liver, but led to strong CRS"
same,tumour growth,[4],substantial suppression of tumour growth
same,release of DAMPs and tumour antigens from tumour cells,"[5]; high dose, Raji cells and human T cells, 24 h",substantial release of DAMPs and tumour antigens
same,tumour cell killing by T cells from treated mice,"[5]; high dose, vs T cells from PBS-treated mice",substantial tumour cell killing
same,serum IL-6,"[5]; humanized NSG mice, persisted after cessation",notable elevation of IL-6 levels
same,half-life,[6],2.11 h
Tocilizumab: commercialized drug for CRS treatment; antibody for the IL-6 receptor,signs of lethal neurological syndrome,[7],developed sudden paralysis
